Laboratory results taken from patent US20090075340A1 (Novo Nordisk, published 2009).

Target: KIR2DL1 expressed on YTS-2DL1 NK cells (human, UniProt P43626 22-348)
Test: cell-based or functional assay

Sequence of KIR2DL1 expressed on YTS-2DL1 NK cells (P43626 other isoform, or with tags, fused parts or gaps limits assumed): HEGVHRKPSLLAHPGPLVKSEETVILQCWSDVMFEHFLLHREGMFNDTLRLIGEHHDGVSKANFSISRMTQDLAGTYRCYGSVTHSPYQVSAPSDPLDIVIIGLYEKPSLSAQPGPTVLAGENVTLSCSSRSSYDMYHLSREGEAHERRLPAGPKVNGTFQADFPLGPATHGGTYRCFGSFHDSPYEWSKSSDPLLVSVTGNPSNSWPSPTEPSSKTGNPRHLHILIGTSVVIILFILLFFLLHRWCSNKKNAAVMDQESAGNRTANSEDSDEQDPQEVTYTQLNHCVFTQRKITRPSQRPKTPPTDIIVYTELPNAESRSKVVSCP

Row | Binder | killing of LCL 721.221-Cw4 cells by YTS-2DL1, fold over killing in the absence of mAb's [fold]
1 | murine IgG1 monoclonal antibody 1-26F117-A3 (antibody, V domains shown) VH: EVQLQQSGPELVKPGASVKISCKASDYSFTGYFMNWVMQSQEKSLEWIGRINPFNGDAFYNQKFKGKATLTVDKSSNTAHMELRSLTSEDSAVYYCARLDYRGYFFDYWGQGTTLTVSS VL: DIVMTQSQKFMSTTVGDRVSITCKASQSVGSAVGWYQQKPGQSPKLLIYSASTRYTGVPDRFTGSGSGTDFTLTITNMQSDDLADYFCHQYSRYPLSFGSGTKLEMKR | 3.7
2 | murine IgG1 monoclonal antibody 1-26F117-A4 (antibody, V domains shown) VH: QVQLKESGPGLVAPSQSLSITCTVSGFSLTDYGVSWVRQPPGKGLEWLGLIWGDGRTNYHSALISRLSISKDNSKSQVFLKLNSLQIDDTATYYCARRGAMDYWGQGTSVTVSS VL: DIVMTQSQKFMSTTVGDRVSITCKASQSVGSAVGWYQQKPGQSPKLLIYSASTRYTGVPDRFTGSGSGTDFTLTITNMQSDDLADYFCHQYSRYPLSFGSGTKLEMKR | ~2
